According to publication PMC10514464 (iScience, 2023):
Where no end group is shown, it is not given here. The star is where a group is joined. FITC = O=C1OC2(c3ccc(O)cc3Oc3cc(O)ccc32)c2ccc(NC(=S)*)cc21

T1: FITC-labeled pepHePTP
T1 peptide: {FITC}-RLQERRGSNVALMLDV

B1: doubly-phosphorylated wild-type rat ERK2 oxidized with H2O2 (sulfenylated on C159) (enzyme)
chain: MAAAAAAGPEMVRGQVFDVGPRYTNLSYIGEGAYGMVCSAYDNLNKVRVAIKKISPFEHQTYCQRTLREIKILLRFRHENIIGINDIIRAPTIEQMKDVYIVQDLMETDLYKLLKTQHLSNDHICYFLYQILRGLKYIHSANVLHRDLKPSNLLLNTTCDLKICDFGLARVADPDHDHTGFLTEYVATRWYRAPEIMLNSKGYTKSIDIWSVGCILAEMLSNRPIFPGKHYLDQLNHILGILGSPSQEDLNCIINLKARNYLLSLPHKNKVPWNRLFPNADSKALDLLDKMLTFNPHKRIEVEQALAHPYLEQYYDPSDEPIAEAPFKFDMELDDLPKEKLKELIFEETARFQPGYRS

What was measured:
[1] = target: B1; test: SPR
FITC-labeled pepHePTP = target: T1, FITC-labeled pepHePTP; test: fluorescence polarisation

Row | Binder | Kd [1] | fold increase in KD,app against untreated ERK2 (FITC-labeled pepHePTP)
1 | Ac-FQRKTLQRRNLKGLNLNL-NH2 [Lig-D peptide] | 58 µM | 
2 | B1 |  | ~100 fold
